These results are taken from US20090068207A1, “Compositions Containing Beta 2-Glycoprotein I-Derived Peptides for the Prevention and/or Treatment of Vascular Disease” (Vascular Biogenics Ltd., priority 2005, published 2009).

For assay [1], the system named is LDL-RD mice. The assay can be described thus: Aortic sinus lesion area after nasal tolerance induction, Western diet. It counts as in vivo. Conditions: END, intranasal 10 μg/mouse every other day for 5 days, then Western diet, mean ± S.E.
Description: Nasal Tolerance: Nasal tolerance was induced by intranasal administration of oxidized LDL, β2GPI, β2GPI-derived peptides or HSP65, in a total volume of 10 μl PBS. Intranasal administration was performed on mildly sedated mice (12-16 weeks old), each mouse receiving 3 doses of antigen per dose, in the indicated concentrations, every other day. Atherogenesis was induced by 5 weeks of a Western diet initiated on the day following the last intranasal administration, or assessed (in Apo E KO mice) after 8 weeks on a chow diet. Controls received equal amounts of BSA and/or PBS, as indicated, in an identical regimen. Plasma was obtained for assessment of cholesterol and triglyceride levels from all mice, and the mice were sacrificed for evaluation of atherosclerosis, as described hereinbelow, after 5 weeks Western diet, or (in Apo E KO mice) after 8 weeks on a chow diet.
Assessment of Atherosclerosis: Quantification of atherosclerotic fatty streak lesions was done by calculating the lesion size in the aortic sinus as previously described (16) and by calculating the lesion size in the aorta. Briefly, after perfusion with saline Tris EDTA, the heart and the aorta were removed from the animals and the peripheral fat cleaned carefully. The upper section of the heart was embedded in OCT medium (10.24% w/w polyvinyl alcohol; 4.26% w/w polyethylene glycol; 85.50% w/w nonreactive ingredients) and frozen. Every other section (10 μm thick) throughout the aortic sinus (400 μm) was taken for analysis. The distal portion of the aortic sinus was recognized by the three valve cusps that are the junctions of the aorta to the heart. Sections were evaluated for fatty streak lesions after processing and staining with oil-red O, according to Paigen et al (Atherosclerosis, 1987; 68:231-40). Lesion areas per section were scored on a grid (17) by an observer counting unidentified, numbered specimens. The aorta was dissected from the heart and surrounding adventitious tissue was removed. Fixation of the aorta and Sudan staining of the vessels were performed as previously described (21).
Mice were bled prior to feeding (Time 0) and at the conclusion of the experiment (End) for determination of lipid profile. Atherosclerosis was assessed in heart and aorta as described above, 8 weeks after the last feeding. Mice were weighed every 2 weeks during the experiment. All mice were fed water ad libitum and a normal chow-diet containing 4.5% fat by weight (0.02% cholesterol), up to the final antigen exposure, and then a “Western” diet until sacrifice.
Thus, nasal exposure to a low dose and an exceedingly low dose of recombinant human HSP 65 were compared for their effectiveness in suppressing atherogenesis in LDL-RD mice. 58 male 12-16 week old LDL-RD mice were divided into 4 groups.
Assay [2] deals with LDL-RD mice. The experiment in a line: Aortic sinus lesion area after intraperitoneal immunization with incomplete Freund's adjuvant. Type of assay: in vivo. Conditions: End, intraperitoneal with incomplete Freund's adjuvant, head 100 μg, mean ± S.E. The method, then:
Intraperitoneal immunization with human β2GPI-derived peptides: human β2GPI-derived peptides were dissolved in PBS and mixed with equal volumes of Freund's incomplete adjuvant. […] One week following the last immunization, the diet was switched from chow to atherogenic “Western” diet for five weeks, and then the mice were sacrificed.
Assessment of Atherosclerosis: Quantification of atherosclerotic fatty streak lesions was done by calculating the lesion size in the aortic sinus as previously described (16) and by calculating the lesion size in the aorta. Briefly, after perfusion with saline Tris EDTA, the heart and the aorta were removed from the animals and the peripheral fat cleaned carefully. The upper section of the heart was embedded in OCT medium (10.24% w/w polyvinyl alcohol; 4.26% w/w polyethylene glycol; 85.50% w/w nonreactive ingredients) and frozen. Every other section (10 μm thick) throughout the aortic sinus (400 μm) was taken for analysis. The distal portion of the aortic sinus was recognized by the three valve cusps that are the junctions of the aorta to the heart. […] Lesion areas per section were scored on a grid (17) by an observer counting unidentified, numbered specimens. The aorta was dissected from the heart and surrounding adventitious tissue was removed. Fixation of the aorta and Sudan staining of the vessels were performed as previously described (21). […]

B1: Human β2 GPI: human beta2-glycoprotein I (SEQ ID NO: 10) purified from serum (protein)
chain: MISPVLILFSSFLCHVAIAGRTCPKPDDLPFSTVVPLKTFYEPGEEITYSCKPGYVSRGGMRKFICPLTGLWPINTLKCTPRVCPFAGILENGAVRYTTFEYPNTISFSCNTGFYLNGADSAKCTEEGKWSPELPVCAPIICPPPSIPTFATLRVYKPSAGNNSLYRDTAVFECLPQHAMFGNDTITCTTHGNWTKLPECREVKCPFPSRPDNGFVNYPAKPTLYYKDKATFGCHDGYSLDGPEEIECTKLGNWSAMPSCKASCKLPVKKATVVYQGERVKIQEKFKNGMLHGDKVSFFCKNKEKKCSYTEDAQCIDGTIEVPKCFKEHSSLAFWKTDASDVKPC
Take B1: the “Aortic sinus lesion (μm^2)” value in assay [1] is reported as 46250 ± 4486 μm^2; in assay [2] it was 36782 ± 5962 μm^2.
